According to patent US20210364527A1 (QUANTUM SI, published 2021):
Primed or numbered codes have the meaning given here. Ends that are not written are not given here. FITC′ = not defined here

T1: RA peptide (N-terminal arginine, penultimate alanine; rest of sequence not given)
T1 peptide: RAKLDEESILKQK-{FITC′}

T2: ClpS from Thermosynochoccus elongatus (teClpS) (Thermosynechococcus elongatus, UniProt Q8DJY3 6-94)
T2 construct: Dye-labelled or streptavidin-complexed depending on the assay; also called Thermosynechococcus elongatus ClpS
T2 sequence: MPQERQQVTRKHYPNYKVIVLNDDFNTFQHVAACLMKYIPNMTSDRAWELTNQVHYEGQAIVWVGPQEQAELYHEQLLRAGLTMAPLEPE

T3: VA peptide VAKLDEESILKQK (XAKLDEESILKQK, X = V)
T3 construct: Immobilized on the biolayer interferometry sensor
T3 peptide: VAKLDEESILKQK

T4: IA peptide IAKLDEESILKQK (XAKLDEESILKQK, X = I)
T4 construct: Immobilized on the biolayer interferometry sensor
T4 peptide: IAKLDEESILKQK

T5: MA
T5 chain: MAKLDEESILKQK

T6: Mus musculus UBR-box domain (PS535) (Mus musculus, UniProt Q6WKZ8 98-168)
T6 sequence: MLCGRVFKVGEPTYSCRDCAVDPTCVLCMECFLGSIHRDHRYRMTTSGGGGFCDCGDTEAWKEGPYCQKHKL

T7: Kluyveromyces lactis UBR-box domain (PS528) (Kluyveromyces lactis, UniProt O60014 101-182)
T7 construct: UBR-streptavidin complex in fluorescence polarization
T7 sequence: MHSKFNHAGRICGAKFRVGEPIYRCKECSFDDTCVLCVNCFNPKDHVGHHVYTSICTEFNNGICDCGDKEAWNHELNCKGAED

T8: Saccharomyces cerevisiae UBR-box domain (PS538) (Saccharomyces cerevisiae, UniProt P19812 113-194)
T8 sequence: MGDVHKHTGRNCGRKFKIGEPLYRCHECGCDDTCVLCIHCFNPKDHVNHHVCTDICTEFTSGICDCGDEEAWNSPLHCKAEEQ

T9: F peptide FAKLDEESILKQK (XAKLDEESILKQK, X = F)
T9 construct: Immobilized on the biolayer interferometry sensor
T9 peptide: FAKLDEESILKQK

T10: LA peptide LAKLDEESILKQK (XAKLDEESILKQK, X = L)
T10 construct: Immobilized on the biolayer interferometry sensor
T10 peptide: LAKLDEESILKQK

T11: Y peptide YAKLDEESILKQK (XAKLDEESILKQK, X = Y)
T11 construct: Immobilized on the biolayer interferometry sensor
T11 peptide: YAKLDEESILKQK

B1: PS691 (Bis-PS621, Linker 2) (designed binder)
chain: MHSKFSHAGRICGAKFKVGEPIYRCKECSFDDTCVLCVNCFNPKDHTGHHVYTTICTEFNNGICDCGDKEAWNHTLFCKAEEGGSAGSAAGSGEFMHSKFSHAGRICGAKFKVGEPIYRCKECSFDDTCVLCVNCFNPKDHTGHHVYTTICTEFNNGICDCGDKEAWNHTLFCKAEEGGGSHHHHHHHHHHGGGSGGGSGGGSGLNDFFEAQKIEWHEGGGSGGGSGGGSGLNDFFEAQKIEWHE
notes: Single polypeptide; the entry includes the C-terminal His/bis-biotinylation tag
B2: FITC-labeled IA peptide IAKLDEESILKQK-FITC (peptide)
peptide: IAKLDEESILKQK-{FITC′}
B3: Agrobacterium tumifaciens ClpS1 (atClpS1) (other)
chain: MIAEPICMQGEGDGEDGGTNRGTSVITRVKPKTKRPNLYRVLLLNDDYTPMEFVIHILERFFQKDREAATRIMLHVHQHGVGECGVFTYEVAETKVSQVMDFARQHQHPLQCVMEKK
notes: also called A. tumefaciens ClpS1; atClpS1 (WT)
B4: FITC-labeled FA peptide FAKLDEESILKQK-FITC (peptide)
peptide: FAKLDEESILKQK-{FITC′}
B5: FITC-labeled VA peptide VAKLDEESILKQK-FITC (peptide)
peptide: VAKLDEESILKQK-{FITC′}
B6: PS694 (Bis-PS528, Linker 2) (designed binder)
chain: MHSKFNHAGRICGAKFRVGEPIYRCKECSFDDTCVLCVNCFNPKDHVGHHVYTSICTEFNNGICDCGDKEAWNHELNCKGAEDGSAGSAAGSGEFMHSKFNHAGRICGAKFRVGEPIYRCKECSFDDTCVLCVNCFNPKDHVGHHVYTSICTEFNNGICDCGDKEAWNHELNCKGAEDGGSHHHHHHHHHHGGGSGGGSGGGSGLNDFFEAQKIEWHEGGGSGGGSGGGSGLNDFFEAQKIEWHE
notes: as for B1
B7: PS370 (other)
chain: MFNSLGTVLDPKKSKAKYPEARVIVLDDNFNTFQHVANCLLAIIPRMCEQRAWDLTIKVDKAGSAEVWRGNLEQAELYHEQLFSKGLTMAPIEKT
B8: Brachionus plicatilis UBR-box domain (PS505) (other)
chain: MVCGRVFKSGEPSYFCRECGTDPTCVLCSICFRHSKHRYHKYVMMTSGGGGYCDCGDPEAWKSDPCCELHMP
B9: FITC-labeled WA peptide WAKLDEESILKQK-FITC (peptide)
peptide: WAKLDEESILKQK-{FITC′}
B10: PS693 (Bis-PS528, Linker 1) (designed binder)
chain: MHSKFNHAGRICGAKFRVGEPIYRCKECSFDDTCVLCVNCFNPKDHVGHHVYTSICTEFNNGICDCGDKEAWNHELNCKGAEDGGGSGGGSGGGSGMHSKFNHAGRICGAKFRVGEPIYRCKECSFDDTCVLCVNCFNPKDHVGHHVYTSICTEFNNGICDCGDKEAWNHELNCKGAEDGGSHHHHHHHHHHGGGSGGGSGGGSGLNDFFEAQKIEWHEGGGSGGGSGGGSGLNDFFEAQKIEWHE
notes: as for B1
B11: KA peptide KAKLDEESILKQK (XAKLDEESILKQK, X = K) (peptide)
peptide: KAKLDEESILKQK
notes: Biolayer interferometry single-point screen of UBR-box homologs
B12: PS690 (Bis-PS621, Linker 1) (designed binder)
chain: MHSKFSHAGRICGAKFKVGEPIYRCKECSFDDTCVLCVNCFNPKDHTGHHVYTTICTEFNNGICDCGDKEAWNHTLFCKAEEGGGGSGGGSGGGSGMHSKFSHAGRICGAKFKVGEPIYRCKECSFDDTCVLCVNCFNPKDHTGHHVYTTICTEFNNGICDCGDKEAWNHTLFCKAEEGGGSHHHHHHHHHHGGGSGGGSGGGSGLNDFFEAQKIEWHEGGGSGGGSGGGSGLNDFFEAQKIEWHE
notes: as for B1
B13: HA peptide HAKLDEESILKQK (XAKLDEESILKQK, X = H) (peptide)
peptide: HAKLDEESILKQK
notes: as for B11
B14: PS692 (Bis-PS621, Linker 3) (designed binder)
chain: MHSKFSHAGRICGAKFKVGEPIYRCKECSFDDTCVLCVNCFNPKDHTGHHVYTTICTEFNNGICDCGDKEAWNHTLFCKAEEGGSAGSAAGSGEFGSAGSAAGSGEFGSAGSAAGSGEFMHSKFSHAGRICGAKFKVGEPIYRCKECSFDDTCVLCVNCFNPKDHTGHHVYTTICTEFNNGICDCGDKEAWNHTLFCKAEEGGGSHHHHHHHHHHGGGSGGGSGGGSGLNDFFEAQKIEWHEGGGSGGGSGGGSGLNDFFEAQKIEWHE
notes: as for B1
B15: PS371 (other)
chain: MATETIERPRTRDPGSGLGGHWLVIVLNDDHNTFDHVAKTLARVIPGVTVDDGYRFADQIHQRGQAIVWRGPKEPAEHYWEQLQDAGLSMAPLERH
B16: FITC-labeled YA peptide YAKLDEESILKQK-FITC (peptide)
peptide: YAKLDEESILKQK-{FITC′}
B17: FITC-labeled LA peptide LAKLDEESILKQK-FITC (peptide)
peptide: LAKLDEESILKQK-{FITC′}
B18: PS695 (Bis-PS528, Linker 3) (designed binder)
chain: MHSKFNHAGRICGAKFRVGEPIYRCKECSFDDTCVLCVNCFNPKDHVGHHVYTSICTEFNNGICDCGDKEAWNHELNCKGAEDGSAGSAAGSGEFGSAGSAAGSGEFGSAGSAAGSGEFMHSKFNHAGRICGAKFRVGEPIYRCKECSFDDTCVLCVNCFNPKDHVGHHVYTSICTEFNNGICDCGDKEAWNHELNCKGAEDGGSHHHHHHHHHHGGGSGGGSGGGSGLNDFFEAQKIEWHEGGGSGGGSGGGSGLNDFFEAQKIEWHE
notes: as for B1
B19: RA peptide RAKLDEESILKQK (XAKLDEESILKQK, X = R) (peptide)
peptide: RAKLDEESILKQK
notes: as for B11

Legend:
[1] = molecular target: T1, RA peptide (N-terminal arginine, …); experiment: fluorescence polarization
[2] = molecular target: T2, ClpS from Thermosynochoccus elongatus …; experiment: fluorescence polarization, single point
[3] = molecular target: T3, VA peptide VAKLDEESILKQK …; experiment: biolayer interferometry, response against 1/kdis
[4] = molecular target: T4, IA peptide IAKLDEESILKQK …; experiment: biolayer interferometry, response against 1/kdis
MA = molecular target: T5, MA; experiment: biolayer interferometry, response against 1/kdis
[5] = molecular target: LF peptide (N-terminal LF; rest of sequence not given); experiment: binder-on-chip single-molecule assay; parameters: unit not given here
[6] = molecular target: T12, WA peptide (N-terminal tryptophan, penultimate alanine; rest of sequence not given); experiment: binder-on-chip single-molecule assay; parameters: unit not given here
T12 construct: they may differ; also called tryptophan peptide

[7] = molecular target: T13, YA peptide (N-terminal tyrosine, penultimate alanine; rest of sequence not given); experiment: binder-on-chip single-molecule assay; parameters: unit not given here
T13 construct: they may differ; also called tyrosine peptide

[8] = molecular target: T14, FA peptide (N-terminal phenylalanine, penultimate alanine; rest of sequence not given); experiment: binder-on-chip single-molecule assay; parameters: unit not given here
T14 construct: they may differ; Dye- or FITC-labelled in some assays; also called phenylalanine peptide; N-terminal FA peptide

[9] = molecular target: T2, ClpS from Thermosynochoccus elongatus …; experiment: fluorescence polarization, FITC-peptide with ClpS:streptavidin complex, 23 C
[10] = molecular target: T3, VA peptide VAKLDEESILKQK …; experiment: BLI heatmap
[11] = molecular target: T4, IA peptide IAKLDEESILKQK …; experiment: BLI heatmap
[12] = molecular target: B4; experiment: fluorescence polarization, single point
[13] = molecular target: B16; experiment: fluorescence polarization, single point
[14] = molecular target: B2; experiment: fluorescence polarization, single point
[15] = molecular target: B9; experiment: fluorescence polarization, single point
[16] = molecular target: B17; experiment: fluorescence polarization, single point
[17] = molecular target: B19; experiment: BLI heatmap, single-point screen
[18] = molecular target: T6, Mus musculus UBR-box domain (PS535); experiment: biolayer interferometry single-point screen, 30 C
[19] = molecular target: T7, Kluyveromyces lactis UBR-box domain …; experiment: biolayer interferometry single-point screen, 30 C
[20] = molecular target: T8, Saccharomyces cerevisiae UBR-box domain …; experiment: biolayer interferometry single-point screen, 30 C
[21] = molecular target: T9, F peptide FAKLDEESILKQK (XAKLDEESILKQK, …); experiment: BLI heatmap
[22] = molecular target: T10, LA peptide LAKLDEESILKQK …; experiment: BLI heatmap
[23] = molecular target: T11, Y peptide YAKLDEESILKQK (XAKLDEESILKQK, …); experiment: BLI heatmap
[24] = molecular target: B5; experiment: fluorescence polarization, single point

For B1, the Kd [1] was 369 nM.

B2: no binding [2].

B3: no binding [3]; no binding [4]; no binding (MA). For the same binder, the Mean pulse width [5] was 0.3, the “Median PW” value [5] was 0.18 and the Mean pulse width [6] was 0.39. For the same binder, the “Median PW” value [6] was 0.24, the Mean pulse width [7] was 0.77 and the “Median PW” value [7] was 0.4. For the same binder, the Mean pulse width [8] was 0.66 and the “Median PW” value [8] was 0.36.

B4: binds [9].

B5: no binding [2].

B6 gave a Kd [1] of 353 nM.

B7: no binding [10]; no binding [11]; binds [12]. B7: binds [13]; no binding [14]; binds [15]. B7: binds [16].

B8: binds [17].

B9: binds [9].

Binder B10 has a Kd [1] of 263 nM.

B11: binds [18]; binds [19]; binds [20].

With B12 the Kd [1] was 354 nM.

B13: binds [19].

With B14 the Kd [1] was 478 nM.

B15: binds [21]; binds [22]; binds [23]. B15: binds [12]; binds [13]; no binding [24]. B15: no binding [14]; binds [16].

B16: binds [9].

B17: binds [9].

B18 showed a Kd [1] of 317 nM.

B19: binds [18]; binds [19]; binds [20].
